In patent US20220380463A1 (Adimab, published 2022):

What was measured:
[1] = molecular target: T1, human CD3 on CD3+ Jurkat cells (human, UniProt P07766 23-207); assay: flow cytometry, 100 nM IgG on CD3+ Jurkat cells, pH 6.0
T1 construct: whole, on cells; Native CD3 complex on cells; the other CD3 chains are not specified for this assay; also called Human CD3+ Jurkat
Method in brief: (§1)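 Jurkat cells incubated 20 min on ice with 100 nM yeast-produced IgG in PBS + 0.1% BSA at pH 6.0 or pH 7.4, with all washes and staining at the same pH. Bound antibody detected with anti-human IgG-RPE, dead cells excluded by propidium iodide; MFI measured by flow cytometry.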

[2] = molecular target: T1, human CD3 on CD3+ Jurkat cells; assay: flow cytometry on CD3+ Jurkat cells, ratio of MFI at pH 6.0 to pH 7.4
Method in brief: as §1

[3] = molecular target: T1, human CD3 on CD3+ Jurkat cells; assay: flow cytometry, 100 nM IgG on CD3+ Jurkat cells, pH 7.4
Method in brief: as §1

T1 sequence (P07766 23-207): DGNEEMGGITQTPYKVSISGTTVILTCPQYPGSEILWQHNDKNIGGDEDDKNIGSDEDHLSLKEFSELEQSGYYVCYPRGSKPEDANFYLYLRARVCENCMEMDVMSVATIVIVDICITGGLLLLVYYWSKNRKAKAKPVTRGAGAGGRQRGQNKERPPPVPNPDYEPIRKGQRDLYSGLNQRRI

Row | Binder | MFI pH 6.0 [1] [MFI] | MFI pH 6.0/MFI pH 7.4 [2] | MFI pH 7.4 [3] [MFI]
1 | SAD10319_P02_A05 (ADI-48629) (antibody, V domains shown, IgG; also called Ab255) VH: QVQLVQSGAEVKKPGASVKVSCKASGYTFDSYAMHWVRQAPGQRLEWMGWINPNTGATTYSQKFQGRVTITRDTSASTAYMELSSLRSEDTAVYYCARDHYGHYFYDVWGQGTLVTVSS VL: DIVMTQSPDSLAVSLGERATINCKSSQSLLNARTGKNYLAWYQQKPGQPPKLLIYWASTRESGVPDRFSGSGSGTDFTLTISSLQAEDVAVYYCKQSYSRRTFGGGTKVEIK | 1780 | 3.6 | 499
2 | SAD10319_P02_H06 (ADI-48633) (antibody, V domains shown, IgG; also called Ab16) VH: QVQLVQSGAEVKKPGASVKVSCKASGYTFTAYVMHWVRQAPGQRLEWMGSIDAGTGNTKYSQKFQGRVTITRDTSASTAYMELSSLRSEDTAVYYCARDAYGHYFYDHWGQGTLVTVSS VL: DIVMTQSPDSLAVSLGERATINCKSSQSLLNARTGKNYLAWYQQKPGQPPKLLIYWASTRESGVPDRFSGSGSGTDFTLTISSLQAEDVAVYYCKQSYSRRTFGGGTKVEIK | 2790 | 1.9 | 1450
3 | SAD10319_P02_G06 (ADI-48632) (antibody, V domains shown, IgG; also called Ab15) VH: QVQLVQSGAEVKKPGASVKVSCKASGYTFTSYAMHWVRQAPGQRLEWMGWINPDTGATVYSQKFQGRVTITRDTSASTAYMELSSLRSEDTAVYYCARDAYHHYFYDVWGQGTLVTVSS VL: DIVMTQSPDSLAVSLGERATINCKSSQSLLNARTGKNYLAWYQQKPGQPPKLLIYWASTRESGVPDRFSGSGSGTDFTLTISSLQAEDVAVYYCKQSYSRRTFGGGTKVEIK | 1620 | 15.1 | 107

Results, then the binder that gave them:

Row | MFI pH 6.0 [1] [MFI] | MFI pH 6.0/MFI pH 7.4 [2] | MFI pH 7.4 [3] [MFI] | Binder
4 | 3160 | 8.6 | 369 | SAD10319_P01_C03 (ADI-48626) (antibody, V domains shown, IgG; also called Ab244) VH: QVQLVQSGAEVKKPGASVKVSCKASGYTFTDYDMHWVRQAPGQRLEWMGWIDPYTGATKYSQKFQGRVTITRDTSASTAYMELSSLRSEDTAVYYCARDAYGHYFYDVWGQGTLVTVSS VL: DIVMTQSPDSLAVSLGERATINCKSSQSLLNARTGKNYLAWYQQKPGQPPKLLIYWASTRESGVPDRFSGSGSGTDFTLTISSLQAEDVAVYYCKQSYSRRTFGGGTKVEIK
5 | 3100 | 13.4 | 232 | SAD10319_P02_D06 (ADI-48631) (antibody, V domains shown, IgG; also called Ab11) VH: QVQLVQSGAEVKKPGASVKVSCKASGYTFTDYAMHWVRQAPGQRLEWMGWINAGTGATIYSQKFQGRVTITRDTSASTAYMELSSLRSEDTAVYYCARDAYHHYFYDVWGQGTLVTVSS VL: DIVMTQSPDSLAVSLGERATINCKSSQSLLNARTGKNYLAWYQQKPGQPPKLLIYWASTRESGVPDRFSGSGSGTDFTLTISSLQAEDVAVYYCKQSYSRRTFGGGTKVEIK
6 | 5540 | 1.1 | 5060 | SAD10319_P02_E05 (ADI-48630) (antibody, V domains shown, IgG; also called Ab4) VH: QVQLVQSGAEVKKPGASVKVSCKASGYTFDSYIMHWVRQAPGQRLEWMGWIDAGTGATVYSQKFQGRVTITRDTSASTAYMELSSLRSEDTAVYYCARDAYGHYFYDHWGQGTLVTVSS VL: DIVMTQSPDSLAVSLGERATINCKSSQSLLNARTGKNYLAWYQQKPGQPPKLLIYWASTRESGVPDRFSGSGSGTDFTLTISSLQAEDVAVYYCKQSYSRRTFGGGTKVEIK
7 | 335 | 7.4 | 45 | SAD10319_P01_F03 (ADI-48627) (antibody, V domains shown, IgG; also called Ab246) VH: QVQLVQSGAEVKKPGASVKVSCKASGYTFESYDMHWVRQAPGQRLEWMGWINAGTGATVYSQKFQGRVTITRDTSASTAYMELSSLRSEDTAVYYCARDAYHHYFYDVWGQGTLVTVSS VL: DIVMTQSPDSLAVSLGERATINCKSSQSLLNARTGKNYLAWYQQKPGQPPKLLIYWASTRESGVPDRFSGSGSGTDFTLTISSLQAEDVAVYYCKQSYSRRTFGGGTKVEIK
